*1 amine or outer side, *2 acyl side, *3 side chain or, on linkers, in order; H or OH if unused. Bridges are numbered along the chain shown (N, C = ends). Where no end group is shown, it is not given here. TCAN = N,N',N''-(nitrilotris(ethane-2,1-diyl))tris(2-chloroacetamide) scaffold, O=C(C[*:1])NCCN(CCNC(=O)C[*:2])CCNC(=O)C[*:3]
Target: T1, Human IL-17A (human, UniProt Q16552 24-155)
T1 construct: Soluble IL-17A used at a fixed concentration (75 nM with tracer BCY13196) in the FP assay; also called CTLA-8
T1 sequence (looked up): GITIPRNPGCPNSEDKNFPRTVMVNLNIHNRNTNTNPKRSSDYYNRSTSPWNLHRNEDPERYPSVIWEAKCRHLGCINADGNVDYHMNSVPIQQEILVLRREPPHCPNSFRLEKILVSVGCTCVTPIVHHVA
Test: fluorescence polarization competition, 75 nM human IL-17A, 1 nM tracer BCY13196 as competitor, mean of n=3
Protocol: Affinity determination by fluorescence polarization (FP) competition. Bicycles were screened to determine affinity (Ki) in a fluorescence polarisation assay where in competition with a bicycle labelled with fluorescein (referred to as tracer) with a known affinity for IL-17A. Peptides were diluted to an appropriate concentration in assay buffer (PBS+0.01% Tween20, adjusted to pH7.4 using NaOH (1M)) with a maximum of 1% DMSO, then serially diluted 1 in 2 into assay buffer. Into black 384-well low volume plates, 5 μL of diluted peptide was added to the plate followed by 10 μL of IL-17A at a fixed concentration (75 nM IL-17A for tracer BCY13196, 50 nM IL-17A for tracer BCY13351), then 10 μL tracer added to a final concentration of 1 nM. Measurements were conducted on a BMG PHERAstar FS equipped with an “FP 485 520 520” optic module which excites at 485 nm and detects parallel and perpendicular emission at 520 nm. The PHERAstar FS was set at 25° C. with 200 flashes per well and a positioning delay of 0.1 second, with each well measured at 5 to 10 minute intervals for 60 minutes. The gain used for measurements was determined at the point of experiment on a tracer alone well. Data analysis was performed in Dotmatics where mP values were fit to the Cheng Prusoff equation in order to generate a Ki value. The tracers used was BCY13196: [Fl]-[…] […]

Ki: 488 nM
B1: BCY13061 (peptide)
peptide: ACPQDLELCTFLFGDCA
modifications: linker 2-9-16 via TCAN
notes: Synthetic bicyclic peptide cyclised on the TCAN scaffold

From patent publication US20230033370A1 (Bicycle, published 2023)
